We go through 5 proteins from publication PMC10292028.

Substrate in data set [1]: N[C@@H](Cc1c[nH]c2ccccc12)C(=O)O
Nature of the data set: HPLC end-point assay, Michaelis-Menten fit. The class given is biochemical, Streptomyces sp. RM-5-8. As to conditions: 2 mM DMAPP, 50 mM Tris pH 8.0, 37 °C.

Substrate in data set [2]: N[C@@H](Cc1c[nH]c2ccccc12)C(=O)O
The data set can be described thus: HPLC end-point assay, Michaelis-Menten fit. It is filed as biochemical, Micromonospora olivasterospora. As to conditions: 2 mM DMAPP, 50 mM Tris pH 8.0, 37 °C.

B1: PriB (Streptomyces sp. RM-5-8) (protein)
chain: MGGPMSGFHSGEALLGDLATGQLTRLCEVAGLTEADTAAYTGVLIESLGTSAGRPLSLPPPSRTFLSDDHTPVEFSLAFLPGRAPHLRVLVEPGCSSGDDLAENGRAGLRAVHTMADRWGFSTEQLDRLEDLFFPSSPEGPLALWCALELRSGGVPGVKVYLNPAANGADRAAETVREALARLGHLQAFDALPRADGFPFLALDLGDWDAPRVKIYLKHLGMSAADAGSLPRMSPAPSREQLEEFFRTAGDLPAPGDPGPTEDTGRLAGRPALTCHSFTETATGRPSGYTLHVPVRDYVRHDGEARDRAVAVLREHDMDSAALDRALAAVSPRPLSDGVGLIAYLALVHQRGRPTRVTVYVSSEAYEVRPPRETVPTRDRARARL
In the case of B1, in data set [1], the Km (usually the substrate concentration at which the rate is half of its maximum) was “(42.9 ± 6.9) × 10^−2 mM”; the kcat (in general, the maximal rate divided by the concentration of active sites) was 0.33 ± 0.0133 s⁻¹; the kcat/Km (commonly the turnover number divided by the Michaelis constant) was determined as 770 M⁻¹ s⁻¹.

B2: 6DMATSmo (Micromonospora olivasterospora) (protein)
chain: MAGLSVSDHLDGQLARLCEVAGADPVEPRNLLAGLLGPVGPRPLYEPPAWPSGVSDDHTPVEFSIAFNEAEPPTLRILGETLGSPPGPLANLSATRGFLDAQARRAGLSTSRLDSVRDLFATDDPQGDFAMWCSLVFRSSRRPEFKVYLNPEVKGVERSPALVSEALHRLGLGASYRALLDHGVRPGELGRGDRLTFFAVDLHDGPQARVKLYLTHHEAEVWDVTRAASVVDGVDVAEIEEFCVVAGGGTRRFDGRPLVGSYTFTEGADRPVGYSIYVPIRSYVTDDQEARDRVAALLVRYGFDTDGLDRAIAAVTPRPLRDGVGLIAHVSLRLGAPRPGVTVYLSAEAYRVSPPRPRRMPAGRDVSPAPVGRTRP
Take B2: in data set [2], the Michaelis constant (Km) entry is on record as “(33.1 ± 2.5) × 10^−2 mM”, the kcat was 0.0917 ± 0.00167 s⁻¹ and the specificity constant (kcat/Km) came to 277 M⁻¹ s⁻¹.

B3: 6DMATSmo (Micromonospora olivasterospora; H329Y/Y277H) (protein)
chain: MAGLSVSDHLDGQLARLCEVAGADPVEPRNLLAGLLGPVGPRPLYEPPAWPSGVSDDHTPVEFSIAFNEAEPPTLRILGETLGSPPGPLANLSATRGFLDAQARRAGLSTSRLDSVRDLFATDDPQGDFAMWCSLVFRSSRRPEFKVYLNPEVKGVERSPALVSEALHRLGLGASYRALLDHGVRPGELGRGDRLTFFAVDLHDGPQARVKLYLTHHEAEVWDVTRAASVVDGVDVAEIEEFCVVAGGGTRRFDGRPLVGSYTFTEGADRPVGYSIHVPIRSYVTDDQEARDRVAALLVRYGFDTDGLDRAIAAVTPRPLRDGVGLIAYVSLRLGAPRPGVTVYLSAEAYRVSPPRPRRMPAGRDVSPAPVGRTRP
On to B3, for which, in data set [2], the Km came to 1000 ± 100 µM, the kcat came out at 0.00182 ± 3.33e-05 s⁻¹ and the kcat/Km turned out to be 1.82 M⁻¹ s⁻¹.

B4: 6DMATSmo (Micromonospora olivasterospora; H329Y) (protein)
chain: MAGLSVSDHLDGQLARLCEVAGADPVEPRNLLAGLLGPVGPRPLYEPPAWPSGVSDDHTPVEFSIAFNEAEPPTLRILGETLGSPPGPLANLSATRGFLDAQARRAGLSTSRLDSVRDLFATDDPQGDFAMWCSLVFRSSRRPEFKVYLNPEVKGVERSPALVSEALHRLGLGASYRALLDHGVRPGELGRGDRLTFFAVDLHDGPQARVKLYLTHHEAEVWDVTRAASVVDGVDVAEIEEFCVVAGGGTRRFDGRPLVGSYTFTEGADRPVGYSIYVPIRSYVTDDQEARDRVAALLVRYGFDTDGLDRAIAAVTPRPLRDGVGLIAYVSLRLGAPRPGVTVYLSAEAYRVSPPRPRRMPAGRDVSPAPVGRTRP
Consider B4, for which, in data set [2], the Km entry was “(26.7 ± 1.6) × 10^−2 mM”, the catalytic constant (kcat) stood at 0.000783 ± 1.17e-05 s⁻¹ and the kcat/Km amounted to 2.93 M⁻¹ s⁻¹.

B5: 6DMATSmo (Micromonospora olivasterospora; Y277H) (protein)
chain: MAGLSVSDHLDGQLARLCEVAGADPVEPRNLLAGLLGPVGPRPLYEPPAWPSGVSDDHTPVEFSIAFNEAEPPTLRILGETLGSPPGPLANLSATRGFLDAQARRAGLSTSRLDSVRDLFATDDPQGDFAMWCSLVFRSSRRPEFKVYLNPEVKGVERSPALVSEALHRLGLGASYRALLDHGVRPGELGRGDRLTFFAVDLHDGPQARVKLYLTHHEAEVWDVTRAASVVDGVDVAEIEEFCVVAGGGTRRFDGRPLVGSYTFTEGADRPVGYSIHVPIRSYVTDDQEARDRVAALLVRYGFDTDGLDRAIAAVTPRPLRDGVGLIAHVSLRLGAPRPGVTVYLSAEAYRVSPPRPRRMPAGRDVSPAPVGRTRP
Consider B5, for which, in data set [2], the Km entry is recorded as “(38.2 ± 0.1) × 10^−2 mM”, the kcat came to 0.00108 ± 3.33e-05 s⁻¹ and the kcat/Km is 2.83 M⁻¹ s⁻¹.
